Measured values published in patent publication US20090221027A1 (BASF AG, priority 2005, published 2009).
Where two headings read alike, the source gives them in different places.

Columns and labels:
[1] = target: C. glutamicum MetY enzyme (Corynebacterium glutamicum, UniProt Q79VI4); assay: biochemical
[2] = reported specific activity; Bsu MetI from T7 promoter in E. coli; cited from earlier work
[3] = H.-S. Lee, personal communication; cited from earlier work
[4] = Cystathionine γ-synthase activity in crude cell extracts; assay type: biochemical
[5] = reported specific activity; Bsu MetI from T7 promoter in E. coli; cited from earlier work; remark: listed apart in the source
[6] = Inhibition of the enzyme by methionine (Table 1); assay type: biochemical
[7] = O-acetyl-homoserine sulfhydrylase activity in crude cell extracts; assay type: biochemical
[8] = in C. glutamicum from P15, crude extracts
[9] = in E. coli from P15, crude extracts

Row | Inhibition by methionine [6, 8] | Inhibition by methionine [6, 9] | Molecule | IC50 [1] [mM] | O-Ac-Hse sulfhydrylase activity [2] [µmol/min/mg] | Inhibition by methionine [3] | Cystathionine γ-synthase activity [4, 8] [nmol/min] | Cystathionine γ-synthase activity [4, 9] [nmol/min] | Cystathionine γ-synthase activity [5] [µmol/min/mg] | O-Ac-Hse sulfhydrylase activity [7, 8] [nmol/min] | O-Ac-Hse sulfhydrylase activity [7, 9] [nmol/min]
1 | – | – | CSCC[C@H](N)C(=O)O [methionine, L-methionine] | ~5 | – | – | – | – | – | – | –
2 | – | – | Cg1 MetY: C. glutamicum O-acetylhomoserine sulfhydrylase (protein, UniProt Q79VI4 1-437, looked up) O-acetyl-L-homoserine …: MPKYDNSNADQWGFETRSIHAGQSVDAQTSARNLPIYQSTAFVFDSAEHAKQRFALEDLGPVYSRLTNPTVEALENRIASLEGGVHAVAFSSGQAATTNAILNLAGAGDHIVTSPRLYGGTETLFLITLNRLGIDVSFVENPDDPESWQAAVQPNTKAFFGETFANPQADVLDIPAVAEVAHRNSVPLIIDNTIATAALVRPLELGADVVVASLTKFYTGNGSGLGGVLIDGGKFDWTVEKDGKPVFPYFVTPDAAYHGLKYADLGAPAFGLKVRVGLLRDTGSTLSAFNAWAAVQGIDTLSLRLERHNENAIKVAEFLNNHEKVEKVNFAGLKDSPWYATKEKLGLKYTGSVLTFEIKGGKDEAWAFIDALKLHSNLANIGDVRSLVVHPATTTHSQSDEAGLARAGVTQSTVRLSVGIETIDDIIADLEGGFAAI | – | 6.0 | Yes | – | – | – | – | –
3 | No | No | Bsu MetI: Bacillus subtilis O-acetyl-homoserine sulfhydrylase with cystathionine-gamma-synthase activity, SEQ ID NO:2 (protein) MSQHVETKLAQIGNRSDEVTGTVSAPIYLSTAYRHRGIGESTGFDYVRTKNPTRQLVEDAIANLENGARGLAFSSGMAAIQTIMALFKSGDELIVSSDLYGGTYRLFENEWKKYGLTFHYDDFSDEDCLRSKITPNTKAVFVETPTNPLMQEADIEHIARITKEHGLLLIVDNTFYTPVLQRPLELGADIVIHSATKYLGGHNDLLAGLVVVKDERLGEEMFQHQNAIGAVLPPFDSWLLMRGMKTLSLRMRQHQANAQELAAFLEEQEEISDVLYPGKGGMLSFRLQKEEWVNPFLKALKTICFAESLGGVESFITYPATQTHMDIPEEIRIANGVCNRLLRFSVGIEHAEDLKEDLKQALCQVKEGAVSFE | – | 7.0 | – | 30.2 | 1900 | 1.5 | 6.3 | 199
